Experimental data: publication PMC5449630

What was measured:
[1] = target: CK2-phosphorylated XRCC4(1-238)-LigIV(654-911) complex (UniProt Q13426); test: SEC-MALS
[2] = target: CK2-phosphorylated XRCC4(1-238)-LigIV(654-911) complex (UniProt Q13426); test: SAXS

Sequence of CK2-phosphorylated XRCC4(1-238)-LigIV(654-911) complex (Q13426 1-238, chain 1 of 2): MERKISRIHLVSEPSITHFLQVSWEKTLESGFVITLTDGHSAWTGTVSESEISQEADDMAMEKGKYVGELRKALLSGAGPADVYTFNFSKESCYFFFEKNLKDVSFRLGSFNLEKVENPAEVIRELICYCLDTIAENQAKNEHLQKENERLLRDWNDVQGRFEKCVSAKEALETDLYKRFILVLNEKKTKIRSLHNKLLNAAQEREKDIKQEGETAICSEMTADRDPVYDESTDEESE
Sequence of CK2-phosphorylated XRCC4(1-238)-LigIV(654-911) complex (P49917 654-911, chain 2 of 2, further chain): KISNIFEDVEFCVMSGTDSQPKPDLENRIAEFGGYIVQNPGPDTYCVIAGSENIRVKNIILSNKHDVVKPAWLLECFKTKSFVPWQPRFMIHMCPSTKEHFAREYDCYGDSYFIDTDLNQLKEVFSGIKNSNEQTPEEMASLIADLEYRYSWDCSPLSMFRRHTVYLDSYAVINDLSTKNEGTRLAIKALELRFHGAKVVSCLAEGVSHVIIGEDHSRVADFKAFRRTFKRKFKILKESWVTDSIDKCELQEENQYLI

stoichiometry N (PNKP per pXRCC4 dimer-LigIV complex) [1]: 1
stoichiometry N (PNKP per pXRCC4 dimer-LigIV complex) [2]: 1
Substance: polynucleotide kinase/phosphatase (PNKP), full length, wild type (from UniProt Q96T60 1-521) (enzyme)
